The sequences below were run on Escherichia coli TOP10 (assay: shrunken log2 fold change of peptide-encoding DNA abundance (4.5 h post-induction vs induction); higher = less antimicrobial activity (less host growth inhibition)). Details: time post-induction: 4.5 h; library: site-saturation at positions 5, 18, 19, 20.
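Further: peptides expressed intracellularly from a pBAD plasmid library in pooled LB shake-flask culture, induced with 0.3% L-arabinose, DNA abundance read by NGS, three biological replicates, DESeq2 with apeglm shrinkage.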

Sequence	shrunken log2 fold change
RRIRCRPPRLPRPRPRPYEAPRP	-0.511
RRIRERPPRLPRPRPRPSFFPRP	0.221
RRIRERPPRLPRPRPRPSTVPRP	-0.0579
RRIRFRPPRLPRPRPRPLQPPRP	0.104
RRIRIRPPRLPRPRPRPICSPRP	-0.118
RRIRTRPPRLPRPRPRPRCYPRP	-0.429
RRIRPRPPRLPRPRPRPQPHPRP	0.138
RRIRHRPPRLPRPRPRPRRDPRP	-0.02
RRIRLRPPRLPRPRPRPTYQPRP	-0.229
RRIRWRPPRLPRPRPRPACEPRP	0.11
RRIRLRPPRLPRPRPRPIKGPRP	-0.106
RRIRERPPRLPRPRPRPGLAPRP	0.178
RRIRYRPPRLPRPRPRPWCLPRP	-0.634
RRIRMRPPRLPRPRPRPVKIPRP	0.514
RRIRDRPPRLPRPRPRPHIFPRP	-0.361
RRIRDRPPRLPRPRPRPLAYPRP	0.0112
RRIRSRPPRLPRPRPRPWGFPRP	-0.0589
RRIRERPPRLPRPRPRPVGGPRP	0.21
RRIRRRPPRLPRPRPRPRRFPRP	0.352
RRIRGRPPRLPRPRPRPWSDPRP	0.0554

Sequence	shrunken log2 fold change
RRIRPRPPRLPRPRPRPEWNPRP	0.07
RRIRVRPPRLPRPRPRPLIVPRP	-0.335
RRIRARPPRLPRPRPRPEKTPRP	0.38
RRIRNRPPRLPRPRPRPWFKPRP	-0.191
RRIRMRPPRLPRPRPRPKKPPRP	0.102
RRIRVRPPRLPRPRPRPATDPRP	0.132
RRIRDRPPRLPRPRPRPGSVPRP	0.113
RRIRARPPRLPRPRPRPFCKPRP	-0.25
RRIRVRPPRLPRPRPRPWAAPRP	0.049
RRIRMRPPRLPRPRPRPMFKPRP	0.0609
RRIRGRPPRLPRPRPRPRLPPRP	0.851
RRIRDRPPRLPRPRPRPQMNPRP	-0.315
RRIRGRPPRLPRPRPRPSSRPRP	0.372
RRIRIRPPRLPRPRPRPWIIPRP	-0.207
RRIRRRPPRLPRPRPRPKICPRP	0.0561
RRIRWRPPRLPRPRPRPLCQPRP	0.0938
RRIRSRPPRLPRPRPRPCCEPRP	-0.22
RRIRIRPPRLPRPRPRPNKMPRP	-0.464
RRIRCRPPRLPRPRPRPVCTPRP	0.0452
RRIRNRPPRLPRPRPRPYDAPRP	-0.066

Sequence	shrunken log2 fold change
RRIRSRPPRLPRPRPRPLHAPRP	0.556
RRIRSRPPRLPRPRPRPQSSPRP	-0.192
RRIRQRPPRLPRPRPRPDFWPRP	0.0103
RRIRHRPPRLPRPRPRPIHLPRP	-0.541
RRIRFRPPRLPRPRPRPNYTPRP	-1.07
RRIRARPPRLPRPRPRPNPQPRP	0.002
RRIRVRPPRLPRPRPRPKENPRP	0.184
RRIRLRPPRLPRPRPRPELEPRP	0.23
RRIRMRPPRLPRPRPRPLGGPRP	0.548
RRIRIRPPRLPRPRPRPHTKPRP	-1.68
RRIRSRPPRLPRPRPRPWKVPRP	-0.173
RRIRFRPPRLPRPRPRPHYSPRP	-0.65
RRIRFRPPRLPRPRPRPFWFPRP	-0.275
RRIRNRPPRLPRPRPRPPKKPRP	-0.166
RRIRLRPPRLPRPRPRPSDIPRP	-0.0623
RRIRKRPPRLPRPRPRPGMAPRP	0.315
RRIRDRPPRLPRPRPRPYPQPRP	-0.582
RRIRKRPPRLPRPRPRPGHMPRP	0.177
RRIRRRPPRLPRPRPRPMMSPRP	0.0352
RRIRIRPPRLPRPRPRPEDQPRP	-0.000348

Source: the supplement of paper PMC9112550, “Optimization of the antimicrobial peptide Bac7 by deep mutational scanning” (BMC Biology, 2022)
